Measurements reported in patent US20070066521, “Short RNA-binding proteins” (published 2007).

How the values were obtained:
S-AC4 (SLCMV AC4) [1] = biological target: T1, S-AC4 (SLCMV AC4) (Sri Lankan cassava mosaic virus); experiment: EMSA; details: tags: GST fusion (pET41a), Ni-NTA purified; label: 5'-32P
T1 chain: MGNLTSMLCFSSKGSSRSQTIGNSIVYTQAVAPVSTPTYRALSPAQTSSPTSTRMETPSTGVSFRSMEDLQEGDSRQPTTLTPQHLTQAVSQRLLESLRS

S-AC4 (SLCMV AC4) [2] = biological target: T1, S-AC4 (SLCMV AC4); experiment: EMSA; text cites SEQ ID NO:29 (DNA probe); RNA oligo listed as SEQ 38; details: tags: GST fusion (pET41a), Ni-NTA purified; label: 5'-32P
E-AC2 (EACMCV AC2) = biological target: T2, E-AC2 (EACMCV AC2) (East African cassava mosaic Cameroon …); experiment: EMSA; details: tags: GST fusion (pET41a), Ni-NTA purified; label: 5'-32P
T2 chain: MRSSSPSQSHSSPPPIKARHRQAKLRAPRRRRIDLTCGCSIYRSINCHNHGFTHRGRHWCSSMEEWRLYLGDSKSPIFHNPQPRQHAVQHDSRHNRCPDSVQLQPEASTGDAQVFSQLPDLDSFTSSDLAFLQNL

S-AC4 (SLCMV AC4) [3] = biological target: T1, S-AC4 (SLCMV AC4); experiment: EMSA; as efficient as unmodified; details: tags: GST fusion (pET41a), Ni-NTA purified; label: 5'-32P
S-AC4 (SLCMV AC4) [4] = biological target: T1, S-AC4 (SLCMV AC4); experiment: EMSA; competed by 10-, 50-, 100-fold unlabelled miR165; details: tags: GST fusion (pET41a), Ni-NTA purified; label: 5'-32P
E-AC4 (EACMCV AC4) = biological target: T3, E-AC4 (EACMCV AC4) (East African cassava mosaic Cameroon …); experiment: EMSA; data not shown; details: tags: pET41a, Ni-NTA purified; label: 5'-32P
T3 chain: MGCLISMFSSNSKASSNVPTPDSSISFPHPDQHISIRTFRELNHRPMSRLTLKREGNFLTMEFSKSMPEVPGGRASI

B1: lin-4 (ssRNA)
RNA: UCCCUGAGACCUCAAGUGUGA
S-AC4 (SLCMV AC4) [1]
  binding result: binds

B2: ta-siRNA siR255 (ssRNA)
RNA: AUGCGAUACAACCUGAAUCUU
S-AC4 (SLCMV AC4) [2]
  binding result: binds

B3: DmiR-165::DmiR-165* DNA duplex (dsDNA)
DNA 1: TCGGACCAGGCTTCATCCCCC
DNA 2: GGGGGATGAAGCCTGGTCCGA
S-AC4 (SLCMV AC4) [1]
  binding result: no binding

B4: miR159* (ssRNA)
RNA: GAGCUCCUUAAAGUUCAAACA
E-AC2 (EACMCV AC2)
  binding result: no binding

B5: pre-miR159 first strand (ssRNA)
RNA: UAAAAAAGGAUUUGGUUAUAUGGAUUGCAUAUCUCAGGAGCUUUAACUUGCCCUGUUAAUGCUUUUACUCUUCUUUGGCUUGAAGGGAGCUCUAC
S-AC4 (SLCMV AC4) [1]
  binding result: no binding

B6: pre-miR159 duplex (dsRNA)
RNA 1: B5 RNA
RNA 2: GUAGAGCUCCUUAAAGUUCAAACAUGAGUUGAGCAGGGUAAAGAAAAGCUGCUAAGCUAUGGAUCCCAUAAGCCCUAAUCCUUGUAAAG
S-AC4 (SLCMV AC4) [1]
  binding result: no binding

B7: DmiR-165 DNA (ssDNA)
DNA: TCGGACCAGGCTTCATCCCCC
S-AC4 (SLCMV AC4) [1]
  binding result: no binding

B8: 2'-O-methyl miR165 (ssRNA)
RNA: UCGGACCAGGCUUCAUCCCCC
modifications: 2'-OMe at last (3') nucleotide
S-AC4 (SLCMV AC4) [3]
  binding result: binds

B9: ta-siRNA siR255::siR255* duplex (dsRNA)
RNA 1: AUGCGAUACAACCUGAAUCUU
RNA 2: GAGAUUCAGGUUGCAUCGCGC
S-AC4 (SLCMV AC4) [1]
  binding result: binds

B10: miR165 (ssRNA)
RNA: UCGGACCAGGCUUCAUCCCCC
S-AC4 (SLCMV AC4) [4]
  binding result: binds

B11: miR159 (ssRNA)
RNA: UUUGGAUUGAAGGGAGCUCUA
E-AC4 (EACMCV AC4)
  binding result: no binding
S-AC4 (SLCMV AC4) [1]
  binding result: binds
E-AC2 (EACMCV AC2)
  binding result: no binding

B12: miR34 (ssRNA)
RNA: AGGCAGUGUGGUUAGCUGGUUG
S-AC4 (SLCMV AC4) [1]
  binding result: binds
